The record followed here is patent US20110053831A1.

The target of this assay is JUN1 fragment of c-Jun (UniProt P05412). Description: cell-based or functional assay.

A value given as a limit tells only on which side of the number the result lay.

The molecule RSDYKDDDDKAYQSIIANEEEREKNFASSKKDGSYTDLL [SEQ ID NO 30] showed a decrease in growth of yeast on HTU media (reverse two-hybrid) above 50%.
The result for RSDYKDDDDKAYQSINSSPVLPENSQELSLHLKQHVTKS [SEQ ID NO 54] reads above 50%; that for RSDYKDDDDKIIIYIFLNISNSIKNIFDNMGKIR [SEQ ID NO 42], above 50%.

B1: SEQ ID NO 44 (peptide)
peptide: RSDYKDDDDKKDSIRRRGENISSQEVEAVLMSHPEVVNAAVYPVRGDLPGD
In turn, B1 showed a decrease in growth of yeast on HTU media (reverse two-hybrid) above 50%.

B2: SEQ ID NO 50 (peptide)
peptide: RSDYKDDDDKKDSIRRRGENISSQEVEAVLMSHPEVVNAAVYPVRGDLPGD
B2 displayed a decrease in growth of yeast on HTU media (reverse two-hybrid) above 50%.
The result for RSDYKDDDDKLYQSLLTATKELLFVAPVAKAFTSCD [SEQ ID NO 46] reads above 50%.
Under RSDYKDDDDKLINQSYAYPYIY [SEQ ID NO 38] stands above 50%; under RSDYKDDDDKAYQSKRL [SEQ ID NO 28], above 50%.
Under RSDYKDDDDKAYQSIRSGGIESSSKRER [SEQ ID NO 56] stands above 50%; under RSDYKDDDDKIYSSILWGTKWCVLLVITP [SEQ ID NO 40], above 50%.
For the molecule RSDYKDDDDKANQLPKILAGRLIFIKC [SEQ ID NO 70], the decrease in growth of yeast on HTU media (reverse two-hybrid) was above 50%.

B3: SEQ ID NO 64 (peptide)
peptide: RSDYKDDDDKAYQSISLAGYHGDTSRTFLVGSVSATARKLVEATQETMIDYTCRRRPCSLTWYQLMHRYRY
In turn, B3 gave a decrease in growth of yeast on HTU media (reverse two-hybrid) above 50%.
The result for RSDYKDDDDKGLQGRRQPGQQPQGRWSGRALPAHR [SEQ ID NO 60] reads above 50%; that for RSDYKDDDDKGLQGRRQPGQQPQGRWSGRALPAHR [SEQ ID NO 62], above 50%.

B4: SEQ ID NO 72 (peptide)
peptide: RSDYKDDDDKAYQSIIGAGKSTLIKALTGVYHADRGTIWLEGQAISPKNTAHAQQCRRRPCSLTWYQLMHRYRY
As to B4, the decrease in growth of yeast on HTU media (reverse two-hybrid) is above 50%.

B5: SEQ ID NO 66 (peptide)
peptide: RSDYKDDDDKAYQSIMAVAAQQPVAFLVGRQRRRGQVGIDSGDQHLRTPLFHELCRRRPCSLAWYQLMHRYRY
B5 returned a decrease in growth of yeast on HTU media (reverse two-hybrid) above 50%.
Molecule RSDYKDDDDKAYQESTKALVEGGADLILIETVLVVVVLVV [SEQ ID NO 32] returned a decrease in growth of yeast on HTU media (reverse two-hybrid) above 50%.
For RSDYKDDDDNTPHSSDGHNNP [SEQ ID NO 52], the decrease in growth of yeast on HTU media (reverse two-hybrid) is above 50%.

B6: SEQ ID NO 34 (peptide)
peptide: RSDYKDDDDKTYQSIKGPENKVKMYFLNDLNFSRRDAGFKARKDALDIASDYENISVVNIPLWGGVVQRIISSVKLSTFLCGLENKDVLIFNFPMAKPFWHILSFFHRLLKFRIVLLIDDKPCRRRPCSLTWYQLMHRYRY
For B6, the decrease in growth of yeast on HTU media (reverse two-hybrid) was above 50%.
Under RSDYKDDDDKAYQSISVVVVLVV [SEQ ID NO 68] stands above 50%; under RSDYKDDDDKAYQSIIH [SEQ ID NO 36], above 50%.
Under RSDYKDDDDKGLQGRRRQGYQSIKP [SEQ ID NO 58] stands above 50%.
Under RSDYKDDDDKAYQSM [SEQ ID NO 26] stands above 50%; under RSDYKDDDDKAYQSISFLSQ [SEQ ID NO 48], above 50%.
